Our source for the Kd values is article PMC2671562, “Structural and Functional Analyses of PAS Domain Interactions of the Clock Proteins Drosophila PERIOD and Mouse PERIOD2” (PLoS Biology, 2009).

B1: Drosophila PERIOD fragment dPER[232–599], wild-type (domain or fragment)
chain: not shown
notes: GST fusion from pGEX-6P2, GST removed with PreScission protease
B2: dPER[232–599] W482E (domain or fragment)
chain: not shown
notes: also called dPER(W482E)
B3: mouse PERIOD2 fragment mPER2[128–473], wild-type (domain or fragment, UniProt O54943 128-473, looked up)
chain: GKASTLATLKYALRSVKQVKANEEYYQLLMSSESQPCSVDVPSYSMEQVEGITSEYIVKNADMFAVAVSLVSGKILYISNQVASIFHCKKDAFSDAKFVEFLAPHDVSVFHSYTTPYKLPPWSVCSGLDSFTQECMEEKSFFCRVSVGKHHENEIRYQPFRMTPYLVKVQEQQGAESQLCCLLLAERVHSGYEAPRIPPEKRIFTTTHTPNCLFQAVDERAVPLLGYLPQDLIETPVLVQLHPSDRPLMLAIHKKILQAGGQPFDYSPIRFRTRNGEYITLDTSWSSFINPWSRKISFIIGRHKVRVGPLNEDVFAAPPCPEEKTPHPSVQELTEQIHRLLMQPVP
notes: also called N-terminally extended PAS domain fragment
B4: dPER[232–599] M560D (domain or fragment)
chain: not shown
notes: also called dPER(M560D)
B5: mouse PERIOD2 fragment mPER2[170–473] (domain or fragment)
chain: GSSYSMEQVEGITSEYIVKNADMFAVAVSLVSGKILYISNQVASIFHCKKDAFSDAKFVEFLAPHDVSVFHSYTTPYKLPPWSVCSGLDSFTQECMEEKSFFCRVSVGKHHENEIRYQPFRMTPYLVKVQEQQGAESQLCCLLLAERVHSGYEAPRIPPEKRIFTTTHTPNCLFQAVDERAVPLLGYLPQDLIETPVLVQLHPSDRPLMLAIHKKILQAGGQPFDYSPIRFRTRNGEYITLDTSWSSFINPWSRKISFIIGRHKVRVGPLNEDVFAAPPCPEEKTPHPSVQELTEQIHRLLMQPVP
notes: two additional N-terminal residues (Gly168 and Ser169) seen in molecule 1 of the crystal, cloning artefacts; GST fusion from pGEX-6P2, GST removed with PreScission protease; also called crystallized mPER2 fragment

This data set deals with the molecule itself. Kind of data set: AUC; sedimentation equilibrium, interference optics, 10 °C, 25 mM HEPES pH 7.7, 100 mM NaCl, 2 mM DTE; four starting concentrations from stocks of 0.8–2 mg/ml; dimer to monomers, K D = 1/K A.
Regarding B1, the Kd is 200 nM.

On to B2, for which the affinity, expressed as Kd, was 3700 nM.

B3 had a Kd of 2250 nM.

B4 showed a Kd of 7140 nM.

B5 came in with a Kd of 1340 nM.

Usually Kd stands for the free concentration of one partner at which half of the binding sites on the other are occupied at equilibrium, for simple one-to-one binding. Lower therefore signals a tighter complex.
